Drawing on patent US20050176630A1, this text covers frequency of GABAergic IPSCs recorded from POMC neurons (D-Trp^8-γMSH 7 nM), hyperpolarization of the membrane potential of POMC cells (Met-Enk 30 µM) and IC50 for three molecules.

No end group written: not given here.

Assay [1] concerns the target MC3-R in mouse arcuate nucleus slices (mouse) (UniProt P33033). As to the kind of experiment: cell-based or functional assay.
In assay [2] the target is µ opioid receptor on POMC neurons in mouse hypothalamic slices (mouse) (UniProt P42866). Put plainly: cell-based or functional assay.
µ opioid receptor on POMC neurons in mouse hypothalamic slices (mouse), sequence (P42866 whole entry): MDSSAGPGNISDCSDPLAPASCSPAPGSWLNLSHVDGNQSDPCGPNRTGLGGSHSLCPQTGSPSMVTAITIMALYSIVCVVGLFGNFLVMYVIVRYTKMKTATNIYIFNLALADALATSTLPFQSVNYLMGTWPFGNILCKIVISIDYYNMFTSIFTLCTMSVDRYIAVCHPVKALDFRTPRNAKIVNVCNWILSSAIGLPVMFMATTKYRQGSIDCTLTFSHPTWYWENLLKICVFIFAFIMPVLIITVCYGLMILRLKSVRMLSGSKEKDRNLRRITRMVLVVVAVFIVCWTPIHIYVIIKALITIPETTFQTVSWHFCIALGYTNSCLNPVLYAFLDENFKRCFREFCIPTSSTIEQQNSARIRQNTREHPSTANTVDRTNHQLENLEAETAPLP
The target of assay [3] is T1, NPY Y2 receptor (expressed on a cell line).
T1 sequence (P49146 whole entry, species assumed, looked up): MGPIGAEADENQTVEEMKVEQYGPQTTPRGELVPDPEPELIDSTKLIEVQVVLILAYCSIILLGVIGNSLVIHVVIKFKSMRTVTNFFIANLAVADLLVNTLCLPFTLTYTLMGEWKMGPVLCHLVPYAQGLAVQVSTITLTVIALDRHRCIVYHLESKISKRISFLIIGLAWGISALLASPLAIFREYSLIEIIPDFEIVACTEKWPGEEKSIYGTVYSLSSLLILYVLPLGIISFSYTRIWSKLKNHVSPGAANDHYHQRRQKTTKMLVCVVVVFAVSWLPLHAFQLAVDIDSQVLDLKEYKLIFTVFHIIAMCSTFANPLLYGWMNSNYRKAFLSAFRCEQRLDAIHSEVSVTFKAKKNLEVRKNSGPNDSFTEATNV
As to the kind of experiment: receptor-binding study on a cell line expressing the NPY Y2 receptor; labelled ligand not named.

MC3-R in mouse arcuate nucleus slices (mouse), sequence (P33033 whole entry): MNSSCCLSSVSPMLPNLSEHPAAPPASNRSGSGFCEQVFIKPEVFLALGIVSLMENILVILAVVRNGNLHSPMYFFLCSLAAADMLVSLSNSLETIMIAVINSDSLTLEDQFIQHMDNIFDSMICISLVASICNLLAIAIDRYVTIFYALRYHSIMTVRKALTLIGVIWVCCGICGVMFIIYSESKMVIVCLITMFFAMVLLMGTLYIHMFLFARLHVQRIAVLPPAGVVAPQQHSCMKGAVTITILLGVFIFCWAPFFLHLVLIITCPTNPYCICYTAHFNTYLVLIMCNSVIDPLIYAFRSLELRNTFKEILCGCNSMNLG

D-Trp^8-γMSH (peptide) yielded a frequency of GABAergic IPSCs recorded from POMC neurons (D-Trp^8-γMSH 7 nM) in assay [1] of 280%.
“met-enkephalin (from UniProt P01210 100-104) (peptide)”: the hyperpolarization of the membrane potential of POMC cells (Met-Enk 30 µM) in assay [2] is 10 to 20 mV.
By IC50 is commonly meant the concentration at which inhibition is half-maximal. Low values mean greater potency in that assay, high ones weaker potency in that assay. In turn, Ac-LRHYLNLLTRQRY (ends and bridges not checked) [N-acetyl (Leu^28, Leu^31) NPY (24-36)] showed an IC50 in assay [3] of 1.3 nM.
